pIC50: −log10 of the molar value. Where no end group is shown, it is not given here. [ ]: non-standard residue; d: D form. Nle = CCCC[C@H](N)C(=O)O
Target: T1, CCR2 (Homo sapiens, UniProt P41597)
T1 construct: endogenous in cells; host or cells: THP-1
T1 sequence (P41597 1-360 isoform P41597-2): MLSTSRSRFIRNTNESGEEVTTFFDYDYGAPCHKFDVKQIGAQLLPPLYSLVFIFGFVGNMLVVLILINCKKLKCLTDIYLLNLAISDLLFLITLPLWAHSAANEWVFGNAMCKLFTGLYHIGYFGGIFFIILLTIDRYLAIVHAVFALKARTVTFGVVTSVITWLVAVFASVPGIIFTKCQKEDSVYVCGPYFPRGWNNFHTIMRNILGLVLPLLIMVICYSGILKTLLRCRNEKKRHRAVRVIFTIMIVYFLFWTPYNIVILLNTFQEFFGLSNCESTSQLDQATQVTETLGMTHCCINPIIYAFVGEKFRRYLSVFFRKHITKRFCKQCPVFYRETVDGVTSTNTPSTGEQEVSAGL
Assay: CCR2 inhibitory potency assay, calcium flux method, THP-1 cells stimulated with 100 nM CCL2
Format: cell-based
Settings: FIG. 5; calcium flux, THP-1 cells; read-out: IC50 (compiled data from four experiments, mean pIC50) (converted)
Procedure: CCR2 inhibitory potency assay was determined using the calcium flux method.
Ca^2+ flux measurements were performed using an FDSS micro-cell device ([…]). On the day of the experiment, THP-1 cells were seeded 20000 cells/well) to wells of black-walled clear-bottom 384-well plates.
THP-1 cells were loaded with a calcium-sensitive fluorescent dye (Screen Quest™ Fluo-8 No Wash Calcium Assay Kit, AAT Bioquest) according to the manufacturer's instructions, then a first addition of either test sample dilutions or vehicle alone were added. 5 minutes later, cells were stimulated with 100 nM CCL2.

Compound	IC50 [nM]
CC(C)(C)N1CCN[C@@H](C(=O)N2CCN(C(=O)Nc3ccc(Cl)c(F)c3)CC2)C1 [AZD2423, reference compound]	6
CC(=O)N[C@@H]1C[C@H](NC(C)(C)C)CC[C@@H]1N1CC[C@H](Nc2ncnc3cc(C(C)(C)C)nn23)C1=O [BMS-813160, reference compound]	9.8
Cc1cnc(C(=O)c2ncnc3[nH]ccc23)c(NS(=O)(=O)c2ccc(Cl)c(C(F)(F)F)c2)c1 [CCX-140, reference compound]	24

Same assay, conditions: Table 3; CCR2 inhibition; read-out: mean IC50

Compound	pIC50
CCL2 variant, N-terminal (Nle)PDWNRAPVT (SEQ ID NO: 35), human CCL2 Met64Nle core [CCL2-M64Nle-NGS-MEO-1]	6.78
CCL2 variant, N-terminal AFSIMQAPVT (SEQ ID NO: 15), human CCL2 Met64Nle core [CCL2-M64Nle-1P8]	7.92
CCL2 variant, N-terminal APQWAAAT, positions 1-2 absent (SEQ ID NO: 32), human CCL2 Met64Nle core [CCL2-M64Nle-2P1]	7.05
CCL2 variant, N-terminal FP(Nle)DGWAPVT (SEQ ID NO: 10), human CCL2 Met64Nle core [CCL2-M64Nle-2P6]	8.66

Same assay, conditions: Table 4; CCR2 inhibition; read-out: mean IC50

Compound	pIC50
CCL2 variant, N-terminal FP(Nle)DGWGPGV (SEQ ID NO: 144), human CCL2 11-76 Met64Nle core (FP[Nle]DGWGPGV; also: followed by human CCL2 11-76 core with Met64Nle) [4P24-CCL2]	8.78
CCL2 variant, N-terminal FP(Nle)DGWGSRV (SEQ ID NO: 102), human CCL2 11-76 Met64Nle core (FP[Nle]DGWGSRV; also: followed by human CCL2 11-76 core with Met64Nle) [4P2-CCL2]	8.57
CCL2 variant, N-terminal FP(Nle)DGWHPLV (SEQ ID NO: 132), human CCL2 11-76 Met64Nle core (FP[Nle]DGWHPLV; also: followed by human CCL2 11-76 core with Met64Nle) [4P18-CCL2]	9.23
CCL2 variant, N-terminal FP(Nle)DGWQGGV (SEQ ID NO: 122), human CCL2 11-76 Met64Nle core (FP[Nle]DGWQGGV; also: followed by human CCL2 11-76 core with Met64Nle) [4P13-CCL2]	9.27
CCL2 variant, N-terminal FP(Nle)DGWRGET (SEQ ID NO: 110), human CCL2 11-76 Met64Nle core (FP[Nle]DGWRGET; also: followed by human CCL2 11-76 core with Met64Nle) [4P6-CCL2]	8.84
CCL2 variant, N-terminal FP(Nle)DGWRGGV (SEQ ID NO: 116), human CCL2 11-76 Met64Nle core (FP[Nle]DGWRGGV; also: followed by human CCL2 11-76 core with Met64Nle) [4P9-CCL2]	8.78
CCL2 variant, N-terminal FP(Nle)DGWRGLT (SEQ ID NO: 106), human CCL2 11-76 Met64Nle core (FP[Nle]DGWRGLT; also: followed by human CCL2 11-76 core with Met64Nle) [4P4-CCL2]	8.62
CCL2 variant, N-terminal FP(Nle)DGWRGLV (SEQ ID NO: 136), human CCL2 11-76 Met64Nle core (FP[Nle]DGWRGLV; also: followed by human CCL2 11-76 core with Met64Nle) [4P20-CCL2]	9.03
CCL2 variant, N-terminal FP(Nle)DGWRGQV (SEQ ID NO: 128), human CCL2 11-76 Met64Nle core (FP[Nle]DGWRGQV; also: fused to human CCL2 11-76 core with Met64Nle) [4P16-CCL2]	9.09
CCL2 variant, N-terminal FP(Nle)DGWRPLV (SEQ ID NO: 140), human CCL2 11-76 Met64Nle core (FP[Nle]DGWRPLV; also: fused to human CCL2 11-76 core with Met64Nle) [4P22-CCL2]	9.12
CCL2 variant, N-terminal FP(Nle)DGWRPRQ (SEQ ID NO: 108), human CCL2 11-76 Met64Nle core (FP[Nle]DGWRPRQ; also: fused to human CCL2 11-76 core with Met64Nle) [4P5-CCL2]	7.18
CCL2 variant, N-terminal FP(Nle)DGWRPRT (SEQ ID NO: 142), human CCL2 11-76 Met64Nle core (FP[Nle]DGWRPRT; also: fused to human CCL2 11-76 core with Met64Nle) [4P23-CCL2]	8.99
CCL2 variant, N-terminal FP(Nle)DGWVSRT (SEQ ID NO: 124), human CCL2 11-76 Met64Nle core (FP[Nle]DGWVSRT; also: fused to human CCL2 11-76 core with Met64Nle) [4P14-CCL2]	9.02
CCL2 variant, N-terminal FTNPTWAPLQ (SEQ ID NO: 83), human CCL2 11-76 Met64Nle core [3P8-CCL2]	9.05
CCL2 variant, N-terminal FTNPTWATHV (SEQ ID NO: 82), human CCL2 11-76 Met64Nle core [3P7-CCL2]	8.83
CCL2 variant, N-terminal FTNPTWDAFT (SEQ ID NO: 76), human CCL2 11-76 Met64Nle core [3P1-CCL2]	9.18
CCL2 variant, N-terminal FTNPTWDAGV (SEQ ID NO: 97), human CCL2 11-76 Met64Nle core [3P22-CCL2]	9.00
CCL2 variant, N-terminal FTNPTWDAQV (SEQ ID NO: 77), human CCL2 11-76 Met64Nle core [3P2-CCL2]	9.05
CCL2 variant, N-terminal FTNPTWDAVT (SEQ ID NO: 89), human CCL2 11-76 Met64Nle core [3P14-CCL2]	9.23
CCL2 variant, N-terminal FTNPTWDHFV (SEQ ID NO: 88), human CCL2 11-76 Met64Nle core [3P13-CCL2]	9.36
CCL2 variant, N-terminal FTNPTWDPFT (SEQ ID NO: 95), human CCL2 11-76 Met64Nle core [3P20-CCL2]	9.14
CCL2 variant, N-terminal FTNPTWDQFT (SEQ ID NO: 86), human CCL2 11-76 Met64Nle core [3P11-CCL2]	9.15
CCL2 variant, N-terminal FTNPTWDRFT (SEQ ID NO: 87), human CCL2 11-76 Met64Nle core (not fully specified (C-terminus); also: followed C-terminally by human CCL2 11-76 core with Met64Nle) [3P12-CCL2]	9.20
CCL2 variant, N-terminal FTNPTWDSFS (SEQ ID NO: 84), human CCL2 11-76 Met64Nle core (not fully specified (C-terminus); also: followed C-terminally by human CCL2 11-76 core with Met64Nle) [3P9-CCL2]	9.23
CCL2 variant, N-terminal FTNPTWDSVT (SEQ ID NO: 98), human CCL2 11-76 Met64Nle core (not fully specified (C-terminus); also: followed C-terminally by human CCL2 11-76 core with Met64Nle) [3P23-CCL2]	9.17
CCL2 variant, N-terminal FTNPTWDTGT (SEQ ID NO: 96), human CCL2 11-76 Met64Nle core (not fully specified (C-terminus); also: followed C-terminally by human CCL2 11-76 core with Met64Nle) [3P21-CCL2]	8.89
CCL2 variant, N-terminal FTNPTWDTQV (SEQ ID NO: 79), human CCL2 11-76 Met64Nle core (not fully specified (C-terminus); also: followed C-terminally by human CCL2 11-76 core with Met64Nle) [3P4-CCL2]	9.19
CCL2 variant, N-terminal FTNPTWKPST (SEQ ID NO: 90), human CCL2 11-76 Met64Nle core (not fully specified (C-terminus); also: followed C-terminally by human CCL2 11-76 core with Met64Nle) [3P15-CCL2]	8.82
CCL2 variant, N-terminal FTNPTWKPYA (SEQ ID NO: 91), human CCL2 11-76 Met64Nle core (not fully specified (C-terminus); also: followed C-terminally by human CCL2 11-76 core with Met64Nle) [3P16-CCL2]	8.91
CCL2 variant, N-terminal FTNPTWQEYS (SEQ ID NO: 92), human CCL2 11-76 Met64Nle core (not fully specified (C-terminus); also: followed C-terminally by human CCL2 11-76 core with Met64Nle) [3P17-CCL2]	9.00

Same assay, conditions: compiled data from four experiments

Compound	fold less potent than 1P2-CCL2 [fold]
CC(C)(C)N1CCN[C@@H](C(=O)N2CCN(C(=O)Nc3ccc(Cl)c(F)c3)CC2)C1 [AZD2423, reference compound]	3.53
CC(=O)N[C@@H]1C[C@H](NC(C)(C)C)CC[C@@H]1N1CC[C@H](Nc2ncnc3cc(C(C)(C)C)nn23)C1=O [BMS-813160, reference compound]	5.76
Cc1cnc(C(=O)c2ncnc3[nH]ccc23)c(NS(=O)(=O)c2ccc(Cl)c(C(F)(F)F)c2)c1 [CCX-140, reference compound]	14.12

Source: patent US20260146071A1, “CCR2 INHIBITORS AND METHODS OF USE” (ORION BIOTECHNOLOGY USA Corp., priority 2022, published 2026)
